# Test results from IntAct's records for PubMed 12606577.
# How the values were obtained:
# [1] = biological target: pak1_human PAK1 (UniProt Q13153)
# [2] = biological target: par6b_mouse Pard6b (UniProt Q9JK83)
# par6b_mouse Pard6b, sequence (Q9JK83 whole entry): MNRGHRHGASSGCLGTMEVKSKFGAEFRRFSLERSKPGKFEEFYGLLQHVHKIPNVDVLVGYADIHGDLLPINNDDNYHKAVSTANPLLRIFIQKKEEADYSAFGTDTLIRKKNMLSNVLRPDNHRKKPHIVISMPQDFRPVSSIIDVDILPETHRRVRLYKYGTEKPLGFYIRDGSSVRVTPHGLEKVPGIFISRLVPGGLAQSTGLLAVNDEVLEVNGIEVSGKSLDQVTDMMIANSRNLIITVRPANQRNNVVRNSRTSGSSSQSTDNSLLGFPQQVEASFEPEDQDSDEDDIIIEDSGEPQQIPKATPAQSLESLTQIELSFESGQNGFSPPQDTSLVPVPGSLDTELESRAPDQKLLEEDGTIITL
# pak1_human PAK1, sequence (Q13153 whole entry): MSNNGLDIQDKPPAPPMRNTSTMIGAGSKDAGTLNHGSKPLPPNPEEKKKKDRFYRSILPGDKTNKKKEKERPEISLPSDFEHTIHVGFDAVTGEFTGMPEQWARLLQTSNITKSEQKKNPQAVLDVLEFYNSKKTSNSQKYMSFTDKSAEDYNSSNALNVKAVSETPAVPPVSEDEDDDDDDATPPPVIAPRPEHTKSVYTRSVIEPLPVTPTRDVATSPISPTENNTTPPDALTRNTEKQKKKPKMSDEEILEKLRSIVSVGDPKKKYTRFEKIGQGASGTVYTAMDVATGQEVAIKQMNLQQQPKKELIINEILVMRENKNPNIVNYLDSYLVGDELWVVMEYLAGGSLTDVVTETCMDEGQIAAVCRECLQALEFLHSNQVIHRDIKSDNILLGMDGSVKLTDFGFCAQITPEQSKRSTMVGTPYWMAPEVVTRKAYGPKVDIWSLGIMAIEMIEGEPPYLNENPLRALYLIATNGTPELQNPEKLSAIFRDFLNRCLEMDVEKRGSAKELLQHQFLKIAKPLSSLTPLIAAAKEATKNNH
# Cell division control protein 42 homolog (Homo sapiens), P60953 D38A, sequence (P60953 whole entry D38A): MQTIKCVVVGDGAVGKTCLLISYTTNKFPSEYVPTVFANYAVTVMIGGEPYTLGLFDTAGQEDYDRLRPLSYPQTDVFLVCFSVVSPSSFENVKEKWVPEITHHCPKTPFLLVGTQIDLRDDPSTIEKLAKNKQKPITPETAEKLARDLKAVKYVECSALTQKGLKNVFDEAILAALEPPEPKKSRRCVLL
# Cell division control protein 42 homolog (Homo sapiens), P60953 Y40K, sequence (P60953 whole entry Y40K): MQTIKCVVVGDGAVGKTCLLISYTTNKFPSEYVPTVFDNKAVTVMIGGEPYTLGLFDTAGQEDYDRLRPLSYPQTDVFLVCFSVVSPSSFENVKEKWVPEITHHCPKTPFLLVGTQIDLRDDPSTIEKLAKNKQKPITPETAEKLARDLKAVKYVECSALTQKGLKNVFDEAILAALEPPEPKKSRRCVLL
# Cell division control protein 42 homolog (Homo sapiens), P60953 F37A, sequence (P60953 whole entry F37A): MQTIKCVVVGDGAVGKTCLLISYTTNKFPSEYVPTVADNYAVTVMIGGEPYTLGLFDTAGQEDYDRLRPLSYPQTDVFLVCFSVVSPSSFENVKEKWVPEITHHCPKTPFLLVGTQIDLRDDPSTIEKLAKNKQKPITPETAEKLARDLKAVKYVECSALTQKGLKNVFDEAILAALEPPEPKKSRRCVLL
effect of a mutation on the interaction [1],effect of a mutation on the interaction [2],Substance
decreasing interaction,decreasing interaction,"Cell division control protein 42 homolog (Homo sapiens), P60953 Y40K"
decreasing interaction,decreasing interaction,"Cell division control protein 42 homolog (Homo sapiens), P60953 D38A"
,decreasing interaction,"Cell division control protein 42 homolog (Homo sapiens), P60953 F37A"
